Laboratory results taken from patent US20240190966A1 (published 2024).

Molecular target: T1, human LY6G6D-Fc (human, UniProt O95868 20-104)
T1 construct: also called huLY6G6D; hu Ly6G6D; not shown: linker and Fc
T1 sequence: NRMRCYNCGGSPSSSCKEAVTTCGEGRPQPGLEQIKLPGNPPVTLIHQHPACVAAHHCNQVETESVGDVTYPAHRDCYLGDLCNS
Assay: BIAcore SPR; chimeric Fab; Ly6G6D-Fc captured on Protein A chip, 37 C (FIG. 34C)
Procedure: FIG. 34C is a set of graphs showing binding of Fab variants of rabbit 20A12, rabbit 20A12 comprising […] and C50A (IA) mutations, and the polished humanized 20A12 having a QNT amino acid substitution mutations at the glycosylation site of FIG. 34B to LY6G6D, as measured using a BIAcore assay. Ly6G6D-Fc was captured on a Protein A chip, and the Fab was flowed through at 37° C..

Kd: 0.86 nM
B1: rb20A12.IA (C35I-C50A) chimeric Fab (Fab, V domains shown)
VH: QQQLEESGGDLVKPGASLTLTCTASGFDFVNNAMIWVRQAPGKGLEWIAALSFADNTAYYATWASGRFTISKISSTTVTLRMTSLTGADTATYFCMRGDLWGPGTLVTVSS
VL: DIVMTQTPSSVSAAVGGTVTINCQASESITRYLNWYQQKPGQPPKLLIYDASKLPSGVPSRFKGSGSGTQFTLTTSDLECADAATYYCQSTSFRGRSYNNTFGGGTEVVVK
modifications: CDR-L3 NNT site is N-glycosylated.
notes: also called rabbit 20A12 comprising C35I and C50A (IA) mutations
